For test [1], the target named is T1, human PD-L1 ECD-His (human, UniProt Q9NZQ7 19-238).
T1 construct: extracellular domain; Analyte in all SPR and BLI runs; also called hPD-L1_ECD-His; hPD-L1 ECD-His; not shown: His tag
Put plainly: SPR, 25 C, antibody captured by anti-human IgG Fc, hPD-L1-His analyte, 1:1 fit. The method, then:
(§1) The binding affinity and kinetics were measured using surface plasmon resonance (SPR). […] Experiments were carried out at 25° C., and measurements were made with serial dilutions of hPD-L1-His from 19.1 nM to 0.71 nM passing over the captured antibodies in HBS-P+buffer supplemented with 0.1% (w/v) BSA with a flow rate of 25 μL/min. All data were analyzed with the evaluation software and curves were fit with a 1:1 Langmuir binding model. All the data are representative of two independent studies performed in duplicate.
Background: In SPR one partner is held on a chip, and binding of the other changes the refractive index at the surface.

Test [2] addresses T1, human PD-L1 ECD-His. Description: SPR, ratio of KD to ref-1. The method, then:
as §1

The target of test [3] is T1, human PD-L1 ECD-His. Put plainly: BLI, ratio of KD to ref-1. On the procedure:
(§2) Briefly, black 96-well plate was prepared with columns containing 200 μL/well of reagents required for determination of affinity. In general, Octet SA sensors were first placed in wells containing 1×Kinetics Buffer (PBS, 0.1% BSA, 0.02% Tween-20, pH 7.4) for 180 seconds to establish a baseline. […] Sensors were then regenerated by 3×5 second incubations in Regeneration Buffer (10 mM Glycine, pH 1.5) followed by a 5 second incubation in 1×Kinetics Buffer each time. Regeneration was repeated before measurement of each association/dissociation cycle. Sensors were then placed in fresh 1×Kinetics Buffer for 180 seconds to establish a baseline. Association was then measured by incubating the sensors for 5 minutes in wells containing hPD-L1-His followed by transferring to wells containing 1×Kinetics Buffer for 10 minutes to measure dissociation. Kinetics (ka, kd, and […] were measured by global fitting four association/dissociation cycles of data obtained from 1:3 serial dilutions of hPD-L1-His from 38.28 nM to 1.42 nM (one association/dissociation cycle for one concentration) with a 1:1 Langmuir binding model. All data were analyzed with Octet Data Analysis Software v.9.0 and representative of two independent experiments performed in duplicate.
(§3) All the data are representative of two independent experiments performed in duplicate.

In test [4] the target is T1, human PD-L1 ECD-His. Description: BLI Octet RED96, biotinylated antibody on SA sensor, hPD-L1-His analyte, 1:1 fit. On the procedure:
as §2, §3
For orientation: Biolayer interferometry detects binding as a change in optical thickness at a sensor tip.

Test [5] deals with T2, recombinant cynomolgus monkey PD-L1_ECD Fc-fusion protein (Sino Biological Inc.) (cynomolgus monkey, UniProt G7PSE7 19-238).
T2 construct: Bought
Description: ELISA: cynomolgus monkey PD-L1_ECD/Fc coated (9 ng/well), peroxidase-labeled goat anti-human IgG F(ab)'2, TMB, OD450. The method, then: The recombinant cynomolgus monkey PD-L1_ECD Fc-fusion proteins were purchased from Sino Biological Inc. PD-L1_ECD/Fc (9 ng per well) were immobilized onto 96-well assay plat by incubating overnight at 4° C. Nonspecific binding sites were blocked using 5% skim milk in PBS for one hour at room temperature. After washing plates three times with PBST, indicated concentrations of anti-PD-L1 antibodies and HLX01 (negative control) were incubated with the immobilized proteins for one hour at room temperature. The plates were washed three times with PBST and then incubated for one hour at room temperature with peroxidase-labeled goat anti-human IgG F(ab)′2 (Jackson ImmunoResearch Laboratories) diluted 1/10,000 in PBS. After washing, plates were developed using TMB (eBioscience). The absorbance was read at the wavelength of 450 nm by Varioskan LUX microplate reader (Thermo Scientific).
HLX01 (anti-CD20 mAb) was used as the negative control.

Test [6] addresses T1, human PD-L1 ECD-His. Put plainly: SPR, hPD-L1-His, PL3 variants.
The target of test [7] is T1, human PD-L1 ECD-His. Description: SPR, ratio of KD to ref-1. The source holds these as a separate data set.
The target in test [8] is T1, human PD-L1 ECD-His. Put plainly: SPR, 25 C, antibody captured by anti-human IgG Fc, hPD-L1_ECD-His analyte, 1:1 fit. On the procedure:
Experiments were carried out at 25° C., and measurements were made with serial dilutions of hPD-L1_ECD-His from 55.4 nM to 11.1 nM passing over the captured antibodies in HBS-P+ buffer supplemented with 0.1% (w/v) BSA with a flow rate of […]. All data were analyzed with the evaluation software and curves were fit with a 1:1 Langmuir binding model. Data are representative of two independent experiments performed in duplicate.

The target of test [9] is T3, human PD-L1 on cells (PHA-activated human T cells); PD-L1-transfected CHO-S cells; A375 melanoma cells; … (human, UniProt Q9NZQ7 19-290).
T3 construct: whole, on cells; also called PD-L1 expressing T cells; PD-L1 expressing CHO-S cells
Description: flow cytometry blocking assay: PD-L1 expressing CHO-S cells incubated with antibody, then biotin-labeled PD-1-Fc and streptavidin-PE; MFI of bound PD-1. The method, then:
PD-L1 expressing CHO-S cells were suspended in FACS buffer (PBS with 4% FBS). Various concentrations of tested antibodies were added to the cell suspension (3.5E5 cells/well) and incubated at 4° C. for 30 minutes. […] The cells were washed and then stained with streptavidin-PE at 4° C. for 30 minutes. Flow cytometric analyses were performed using the Cytomics FC 500 (Beckman Coulter Inc.).
Anti-PD-L1 reference antibody and Avastin were used as the positive and negative control, respectively.

For test [10], the target named is T3, human PD-L1 on cells (PHA-activated …). Put plainly: flow cytometry on PHA-activated human CD3+ T cells, FITC-labeled anti-human IgG Fcγ, MFI. The method, then:
Human T cells were isolated from PBMC using MagniSortTM Human T Cell Enrichment Kit (eBioscience). Isolated T cells were activated by 5 μg/mL phytohemagglutinin (PHA) for 3 days to stimulate the PD-L1 expression. Activated T cells were collected and incubated in FACS buffer (PBS with 2% FBS) with human Fc blocker (eBioscience) for 20 minutes at 4° C. Binding of anti-PD-L1 monoclonal antibody was assessed by incubating the activated T cells with the serial-diluted antibodies in FACS buffer. The cells were washed with flow buffer and the binding was detected with a FITC-labeled rabbit anti-human IgG FcγAb. Cells were also stained with mouse anti-human CD3 PE-Cy7 (eBioscience) for gating CD3-positive T cells. Flow cytometric analyses were performed using the Cytomics FC 500 (Beckman Coulter Inc.).
Background: Flow cytometry measures light scatter and fluorescence of single cells or particles in a stream.

Numbering of substitutions follows the chain as printed. In names and notes the source's numbering stands.

T3 sequence (Q9NZQ7 19-290): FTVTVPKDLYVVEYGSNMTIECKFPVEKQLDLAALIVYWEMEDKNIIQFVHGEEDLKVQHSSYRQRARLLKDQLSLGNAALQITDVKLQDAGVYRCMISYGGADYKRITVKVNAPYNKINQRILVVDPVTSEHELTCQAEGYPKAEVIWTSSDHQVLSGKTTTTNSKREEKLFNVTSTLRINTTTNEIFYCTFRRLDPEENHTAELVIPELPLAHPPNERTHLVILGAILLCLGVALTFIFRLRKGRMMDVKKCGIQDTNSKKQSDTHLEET
T1 sequence (Q9NZQ7 19-238): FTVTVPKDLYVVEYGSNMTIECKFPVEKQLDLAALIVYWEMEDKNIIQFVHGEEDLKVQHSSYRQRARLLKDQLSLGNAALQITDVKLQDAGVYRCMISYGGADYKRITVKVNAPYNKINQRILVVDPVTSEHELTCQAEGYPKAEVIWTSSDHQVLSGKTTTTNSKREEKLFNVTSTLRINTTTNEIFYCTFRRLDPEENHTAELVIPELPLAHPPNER
T2 sequence (G7PSE7 entry or part of it limits assumed): as the sequence (Q9NZQ7 19-238) above, with A33T, A34S, S62N, R68Q, Q82R, F173L, T185A, T192I, H215L counted along it

B1: PL2 IgG2 (antibody, V domains shown)
VH: EVQLVQSGGGLVKPGGSLRLSCAASGFTFSSYTMNWVRQAPGKGLEWVSSISSGSDYLYYADSVKGRFTISRDNAKNSLYLQMNSLRAEDTAVYYCARNELRWYPQAGAFDIWGQGTMVTVSS
VL: QSVVTQPPSMSAAPGQNVTISCSGSSSYIESSYVSWYQQLPGTAPRLLIYDDDMRPSGIPDRFSGSKSGTSATLAITGLQTGDEADYYCEIWDSGLGGVFGGGTKLTVL
Regarding B1, in the test with human PD-L1 ECD-His [1], the Kd (as a rule, the free concentration of one partner at which half of the binding sites on the other are occupied at equilibrium, for simple one-to-one binding) worked out at 6.96 nM; the koff (as a rule, the first-order rate constant of dissociation) came to 0.00217 s⁻¹; the kon (usually the second-order rate constant of association) came out at 747000 M⁻¹ s⁻¹. In the test with human PD-L1 ECD-His [2], the “Improvement over ref-1” value turned out to be 1.21 fold.

B2: PL3#7 mtIgG1 (antibody, V domains shown)
VH: QVQLVQSGAEVKKPGSSVKVSCKASGGTFSSYPISWVRQAPGQGLEWIGRIIPILGIANYAQKFQGRVTITADKSTSTAYMELSSLRSEDTAVYYCARSRDGYAFGAFDIWGQGTLVTVSS
VL: QSVVTQPPPVSGAPGQRVTISCTGSSSNIGAGYDVHWYQQLPGTAPKLLIYGNSNRPSGVPDRFSGSKSGTSASLAITGLQAEDEADYYCQTYDSSLSARVVFGGGTKLTVLG
modifications: Antibody was biotinylated (NHS-PEG4-biotin, sites not specified) for the Octet assay of Table 11.
notes: N297A mutant human IgG1
Consider B2, for which the “Improvement over ref-1” value in the test with human PD-L1 ECD-His [3] amounted to 2.26 fold. Further, in the test with human PD-L1 ECD-His [4], binding was characterised by a dissociation constant (Kd) of 1.09 nM, the koff was determined as 0.000305 s⁻¹ and the kon came to 298000 M⁻¹ s⁻¹. Also, in test [5], the EC50 (read off the curve) (in general, the concentration at which the effect is half-maximal) is around 0.04 µg/mL.

B3: PL3#7 IgG2 (antibody, V domains shown)
VH: B2 VH
VL: QSVVTQPPPVSGAPGQRVTISCTGSSSNIGAGYDVHWYQQLPGTAPKLLIYGNSNRPSGVPDRFSGSKSGTSASLAITGLQAEDEADYYCQTYDSSLSARVVFGGGTKLTVL
notes: Human IgG2
In the test with human PD-L1 ECD-His [6], B3 came in with a dissociation constant Kd of 0.349 nM, a koff of 0.000327 s⁻¹ and a kon of 995000 M⁻¹ s⁻¹. Further, the “Improvement over ref-1” value in the test with human PD-L1 ECD-His [7] worked out at 1.81 fold.

B4: PL15 (full-length, N297A mutant human IgG1) (antibody, V domains shown)
VH: B2 VH with P33T, I48M, A104S
VL: QSVLTQPPSVSGAPGQRVTISCTGYSSNIGAGYDVHWYQHLPGTAPKLLIYGNSNRPSGVPDRFSGSKSGTSASLAITGLQAEDEADYYCQSYDNSLSVSVFGGGTKLTVLG
For B4, in the test with human PD-L1 ECD-His [8], the Kd was 15 nM, the koff was found to be 0.00933 s⁻¹ and the kon came to 645000 M⁻¹ s⁻¹. Further, the “IC50 (read off the curve)” value in test [9] is around 0.06 µg/mL. The “EC50 (read off the curve)” value in test [10] was around 0.03 µg/mL.

B5: PL3#7 IgG4 (antibody, V domains shown)
VH: B2 VH
VL: B3 VL
notes: Human IgG4
In the case of B5, in the test with human PD-L1 ECD-His [6], the Kd is 0.321 nM, the koff turned out to be 0.000362 s⁻¹ and the kon amounted to 1.14e+06 M⁻¹ s⁻¹. Further, the “Improvement over ref-1” value with human PD-L1 ECD-His [7] was found to be 1.97 fold.

B6: PL3#7 IgG1 (antibody, V domains shown)
VH: B2 VH
VL: B3 VL
notes: Human IgG1
Regarding B6, in the test with human PD-L1 ECD-His [6], the affinity, expressed as Kd, was 0.457 nM; the koff is 0.000444 s⁻¹; the kon is 997000 M⁻¹ s⁻¹. Also, the “Improvement over ref-1” value in the test with human PD-L1 ECD-His [7] was found to be 1.38 fold.

B7: PL3#1 IgG2 (antibody, V domains shown)
VH: B2 VH with P33R, I48M, A104S, F105V, I110S
VL: B3 VL with N55R, A99R, R100P
notes: Human IgG2
As for B7, in the test with human PD-L1 ECD-His [6], binding was put at a Kd of 0.74 nM, the koff came to 0.00067 s⁻¹ and the kon is 931000 M⁻¹ s⁻¹. Besides, the “Improvement over ref-1” value in the test with human PD-L1 ECD-His [7] was determined as 0.85 fold.

B8: PL3#1 mtIgG1 (N297A) (antibody, V domains shown)
VH: B2 VH with P33R, I48M, A104S, F105V, I110S
VL: B3 VL with N55R, A99R, R100P
notes: N297A mutant human IgG1
As to B8, in the test with human PD-L1 ECD-His [6], the affinity, expressed as Kd, was 0.366 nM; the koff turned out to be 0.000395 s⁻¹; the kon stood at 1.1e+06 M⁻¹ s⁻¹. In addition, the “Improvement over ref-1” value with human PD-L1 ECD-His [7] was found to be 1.73 fold.

B9: PL3 IgG2 (antibody, V domains shown)
VH: B2 VH with P33T, I48M, A104S
VL: B3 VL with T92S, R100P
notes: Human IgG2
Turning to B9, in the test with human PD-L1 ECD-His [6], the Kd is 6.64 nM, the koff is 0.00277 s⁻¹ and the kon was determined as 417000 M⁻¹ s⁻¹. In the test with human PD-L1 ECD-His [7], the “Improvement over ref-1” value amounted to 0.1 fold.

B10: PL3 IgG1 (antibody, V domains shown)
VH: B2 VH with P33T, I48M, A104S
VL: B3 VL with T92S, R100P
For B10, in the test with human PD-L1 ECD-His [6], the Kd is 5.46 nM, the koff worked out at 0.00291 s⁻¹ and the kon was determined as 542000 M⁻¹ s⁻¹. The “Improvement over ref-1” value with human PD-L1 ECD-His [7] worked out at 0.12 fold.

B11: PL8 (full-length, N297A mutant human IgG1) (antibody, V domains shown)
VH: EVQLVQSGAEVKKPGSSVKVSCKASGGTFSSYAISWVRQAPGQGLEWMGRIIPIFGTANYAQKFQGRVTITADESTSTAYMELSSLRSEDTAVYYCAREGVLDAFDIWGQGTMVTVSS
VL: LSSELTQDPAVSVALGQTVRITCQGDSLRSYYVSWYQQKPGQAPVLVLYGKNNRPSGIPDRFSGSSSGSTASLTITGAQAEDEADYYCNSRDSTGNLLRVFGGGTKLTVLG
In the test with human PD-L1 ECD-His [8], B11 displayed a Kd of 8.85 nM, a koff of 0.00348 s⁻¹ and a kon of 382000 M⁻¹ s⁻¹.

B12: PL6 (full-length, N297A mutant human IgG1) (antibody, V domains shown)
VH: EVQLVQSGAEVKKPGSSVKVSCKASGGTFSSYTINWVRQAPGQGLEWVGKIIPILGIADYAQMFKGRVTITADKFTSTVYMELNSLRSEDTAVYYCARGGYVGYLNAFDIWGQGTMVTVSS
VL: B4 VL with L4V, Y25S, H40Q, N95S, V99G, S100G
As for B12, in the test with human PD-L1 ECD-His [8], the Kd is 11.2 nM, the koff was 0.0122 s⁻¹ and the on-rate (kon) was 1.05e+06 M⁻¹ s⁻¹. In addition, the “IC50 (read off the curve)” value in [9] is around 0.03 µg/mL.

These data come from patent US20190225691A1 (SHANGHAI HENLIUS BIOTECH, published 2019).
